B1: 2A10 IgG (antibody, V domains shown)
VH: QVQLVESGGGLIQPGGSLRLSCAASEFIVSSNYMSWVRQAPGKGLEWVSLLYSGGTTYYADSVKGRFTISRDNSKNTLFLQMNSLRAEDTAMYYCARDRGPWLHDYWGQGTLVTVSS
VL: DIVMTQSPSSLSASVGDRVTITCQASQDINKYCNWYQQKPGKAPKLLIYDASNLETGVPSRFSGSGSGTDFTFTINSLQPEDIATYYCQQYDNLPPTFGGGTKVEIK
B2: 1H2 IgG (antibody, V domains shown)
VH: QVQLQQSGGGLVQPGRSLRLSCAASGFTFDDYAMHWVRQAPGKGLEWVSGITWNSGTIGYADSVKGRFTISRDNAKNSLYLQMRSLRAEDTALYYCAKDSGRKLLWGREDYYMGVWGKGTTVTV
VL: SYELTQPPSVSVAPGKTARITCGGSNIGSKSVHWYQQKPGQAPVLVIYYDSDRPSGIPERFSGSNSGNTATLTISRVEAGDEADYYCQVWDSSSDHVVFGG
B3: 2A10 Fab (Fab, V domains shown)
VH: B1 VH
VL: B1 VL

Legend:
[1] = target: T1, SARS-CoV-2 spike receptor-binding domain (soluble RBD, residues 319–591) (SARS-CoV-2, UniProt P0DTC2); assay: SPR
[2] = target: T1, SARS-CoV-2 spike receptor-binding …; assay: crystal structure

Binder	binding result [1]	binding result [2]
B1	binds	
B2	binds	
B3		binds

From paper PMC10083196 (Cell Reports, 2023)
